Test results: patent publication US20220112276A1 (Janssen / Centocor, published 2022)
Residue numbers refer to the chain shown, from its start. Blank lines part the entries; values can stand above or below the binder they belong to.

Legend:
[1] = target: T1, human pIgR extracellular domain (ECD) (human, UniProt P01833 19-638); test: SPR, VHH captured by anti-Fc, ECD analyte
T1 construct: Bought from R&D Systems (Cat 2717-PG-050); also called hpIgR ECD
Experimental: (§1) In an assay, two flow cells of the SPR were used, in which the flow cell 1 ran the buffer reference, and the flow cell 2 ran the analyte. […] The HBSP (GE) buffer was followed at a flow rate of 30 μL/min. Then, the VHHs were captured on the anti-human Fc protein surface at 0.5 ug/ml (˜200-300 RU) on the flow cell 2. The running buffer was changed to HBSP with 100 ug/ml BSA after the capture. Next, the pIgR extracellular domains were used as analyte and loaded in a series of concentrations, starting at 30 nM with further 3-fold dilution series.
(§2) The extracellular domains were prepared as follows: cynomolgus monkey and rat extracellular domains were produced and characterized in house; mouse and human pIgR extracellular domains were purchased from R&D Systems (Cat #2800-PG-050 & 2717-PG-050 respectively). The pIgR extracellular domains were injected from low to high concentration using a single-cycle kinetics method. The off-rate was monitored at 30 minutes after the last or highest concentration injection. The reference run was completed under the same conditions except that the pIgR injection was replaced by buffer injection.
(§3) The raw data were processed by subtracting two sets of reference data from the response data: (1) reference flow cell 1 subtracted from sample flow cell 2; and (2) buffer blank run subtracted from experimental run. The processed data at all concentrations for each VHH were globally fit to a 1:1 simple Langmuir binding model to extract estimates of the kinetic constants (kₒₙ, koff) and affinity constants (KD).

[2] = target: T2, cynomolgus monkey pIgR extracellular domain (cynomolgus monkey, UniProt A0A2K5WMU9 19-638); test: SPR, VHH captured by anti-Fc, ECD analyte
T2 construct: extracellular domain
Experimental: as §1, §2, §3

T2 sequence (A0A2K5WMU9 entry or part of it): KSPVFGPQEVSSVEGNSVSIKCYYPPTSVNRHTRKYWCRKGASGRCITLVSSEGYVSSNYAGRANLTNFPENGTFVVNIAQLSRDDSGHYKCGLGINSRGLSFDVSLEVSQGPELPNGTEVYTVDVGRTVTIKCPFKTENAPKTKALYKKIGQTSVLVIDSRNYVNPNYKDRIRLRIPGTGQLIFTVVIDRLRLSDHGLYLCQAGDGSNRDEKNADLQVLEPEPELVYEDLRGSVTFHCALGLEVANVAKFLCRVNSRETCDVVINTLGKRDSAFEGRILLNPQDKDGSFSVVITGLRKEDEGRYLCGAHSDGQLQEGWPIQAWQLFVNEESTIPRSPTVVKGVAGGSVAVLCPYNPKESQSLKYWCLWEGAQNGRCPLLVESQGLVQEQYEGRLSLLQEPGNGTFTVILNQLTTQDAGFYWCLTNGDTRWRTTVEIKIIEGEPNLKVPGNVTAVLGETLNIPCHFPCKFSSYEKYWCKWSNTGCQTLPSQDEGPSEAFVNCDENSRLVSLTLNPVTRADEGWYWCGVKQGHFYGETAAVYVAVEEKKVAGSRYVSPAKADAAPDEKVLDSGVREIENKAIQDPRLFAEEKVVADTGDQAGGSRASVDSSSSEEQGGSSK
T1 sequence (P01833 other isoform, or with tags, fused parts or gaps): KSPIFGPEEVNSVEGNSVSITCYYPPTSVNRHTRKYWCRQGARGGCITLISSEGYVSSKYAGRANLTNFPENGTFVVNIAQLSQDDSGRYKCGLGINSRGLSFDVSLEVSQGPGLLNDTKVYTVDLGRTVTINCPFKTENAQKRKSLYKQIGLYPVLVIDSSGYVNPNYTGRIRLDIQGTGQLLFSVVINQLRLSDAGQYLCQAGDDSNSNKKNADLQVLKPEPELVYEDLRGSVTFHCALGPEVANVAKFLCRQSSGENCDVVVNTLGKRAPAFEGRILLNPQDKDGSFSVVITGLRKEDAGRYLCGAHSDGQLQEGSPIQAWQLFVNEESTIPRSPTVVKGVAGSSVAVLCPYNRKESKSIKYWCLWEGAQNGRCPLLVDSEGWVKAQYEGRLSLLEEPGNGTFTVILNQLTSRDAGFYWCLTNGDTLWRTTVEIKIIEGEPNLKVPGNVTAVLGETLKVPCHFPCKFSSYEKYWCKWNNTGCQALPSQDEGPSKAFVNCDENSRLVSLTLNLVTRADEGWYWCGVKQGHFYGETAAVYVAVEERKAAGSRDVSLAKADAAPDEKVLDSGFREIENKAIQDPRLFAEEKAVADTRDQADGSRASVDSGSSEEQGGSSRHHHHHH

B1: 01F01R2 VHH Mono-Fc (Fc fusion)
chain: QVQLVESGGGLVQAGGSLRLSCAASGRTFSSNPMGWFRQAPGKEREFVAAISWSGGGTYYADSVKGRFTISRDNAKNTVTLQMNSLKPEDTAVYYCASRDYSDPISLWVEDREYDYWGQGTQVTVSSSPAPELLGGPSVFLFPPKPKDTLMISRTPEVTCVVVDVSHEDPEVKFNWYVDGVEVHNAKTKPREEQYNSTYRVVSVLTVLHQDWLNGKEYKCKVSNKALPAPIEKTISKAKGQPREPQVYTKPPSREEMTKNQVSLSCLVKGFYPSDIAVEWESNGQPENNYKTTVPVLDSDGSFRLASYLTVDKSRWQQGNVFSCSVMHEALHNHYTQKSLSLSPGK
Kd [1]: 2.13 nM
Kd [2]: 4.08 nM

B4: 01A09R2 VHH Mono-Fc (Fc fusion)
chain: B1 chain with Q1E
Kd [1]: 2.14 nM
Kd [2]: 4.02 nM

B6: 01F03R2 VHH Mono-Fc (Fc fusion)
chain: QVQLVESGGGLVQAGGSLRLSCAASGRTFSSYAMGWFRQAPGKEREFVAVISWSGGSTYYADSVKGRFTISRDNAKNTVYLQMNSLKPEDTAVYYCASGEQPGSNRPYIPEQPIEFMPTDYPSWYDYWGQGTQVTVSSSPAPELLGGPSVFLFPPKPKDTLMISRTPEVTCVVVDVSHEDPEVKFNWYVDGVEVHNAKTKPREEQYNSTYRVVSVLTVLHQDWLNGKEYKCKVSNKALPAPIEKTISKAKGQPREPQVYTKPPSREEMTKNQVSLSCLVKGFYPSDIAVEWESNGQPENNYKTTVPVLDSDGSFRLASYLTVDKSRWQQGNVFSCSVMHEALHNHYTQKSLSLSPGK
Kd [1]: 1.36 nM
Kd [2]: 3.57 nM

B7: 01B01R3 VHH Mono-Fc (Fc fusion)
chain: B6 chain with Q133L
Kd [1]: 1.38 nM
Kd [2]: 3.78 nM

B8: 01D02R3LS VHH Mono-Fc (Fc fusion)
chain: QVQLVESGGGLVQAGDSLTLSCAASGRSVGFDTYGMAWFRQAPGKEREFVASIAYNGETTSYADSVQGRFTVTRENAKNTIALRMNGLKPDDTAVYYCAAAQYYLTGTSFPAKFWGQGTLVTVSSSPAPELLGGPSVFLFPPKPKDTLMISRTPEVTCVVVDVSHEDPEVKFNWYVDGVEVHNAKTKPREEQYNSTYRVVSVLTVLHQDWLNGKEYKCKVSNKALPAPIEKTISKAKGQPREPQVYTKPPSREEMTKNQVSLSCLVKGFYPSDIAVEWESNGQPENNYKTTVPVLDSDGSFRLASYLTVDKSRWQQGNVFSCSVMHEALHNHYTQKSLSLSPGK
Kd [1]: 0.809 nM
Kd [2]: 0.885 nM

B9: 01D01R3 VHH Mono-Fc (Fc fusion)
chain: EVQLVESGGGLVQAGGSLRLSCAASGRTFSVYGMGWFRQAPGQERAFVAAISWSDGSTYYADSVKGRFTISRDNAKNTMYLQMNSLKPEDTAVYFCAADLTGWGLDADVSEYDYWGQGTQVTVSSSPAPELLGGPSVFLFPPKPKDTLMISRTPEVTCVVVDVSHEDPEVKFNWYVDGVEVHNAKTKPREEQYNSTYRVVSVLTVLHQDWLNGKEYKCKVSNKALPAPIEKTISKAKGQPREPQVYTKPPSREEMTKNQVSLSCLVKGFYPSDIAVEWESNGQPENNYKTTVPVLDSDGSFRLASYLTVDKSRWQQGNVFSCSVMHEALHNHYTQKSLSLSPGK
Kd [1]: 5.96 nM
Kd [2]: 375 nM

B13: 01C05R3LS VHH Mono-Fc (Fc fusion)
chain: EVQLVESGGGLVQAGGSLRLSCAASGRTINTYVMGWFRQAPGKEREFVARIDWSGSSTDYADSVKGRFTISRDNAKNTVYLQMNSLKPEDTAVYYCAGSAYYSGYVTHRDFGSWGQGTLVTVSSSPAPELLGGPSVFLFPPKPKDTLMISRTPEVTCVVVDVSHEDPEVKFNWYVDGVEVHNAKTKPREEQYNSTYRVVSVLTVLHQDWLNGKEYKCKVSNKALPAPIEKTISKAKGQPREPQVYTKPPSREEMTKNQVSLSCLVKGFYPSDIAVEWESNGQPENNYKTTVPVLDSDGSFRLASYLTVDKSRWQQGNVFSCSVMHEALHNHYTQKSLSLSPGK
Kd [1]: 5.77 nM
Kd [2]: 84.9 nM

B14: 01B10R3LS VHH Mono-Fc (Fc fusion)
chain: B13 chain with E1Q, N30Y, T31G, L119Q
Kd [1]: 38 nM
Kd [2]: 192 nM

B17: 01D07R3LS VHH Mono-Fc (Fc fusion)
chain: B13 chain with E1Q
Kd [1]: 9.78 nM
Kd [2]: 103 nM

The next lines start with the values.

Kd [1]: 2.33 nM
Kd [2]: 4.26 nM
B2: 03B07R3 VHH Mono-Fc (Fc fusion)
chain: B1 chain with Q122L

Kd [1]: 2.14 nM
Kd [2]: 4.59 nM
B3: 03D05R3 VHH Mono-Fc (Fc fusion)
chain: B1 chain with Q1E, D111G, Q122L

Kd [1]: 0.072 nM
Kd [2]: 0.004 nM
B5: 03D09R3 VHH Mono-Fc (Fc fusion)
chain: QVQLVESGGGLVQAGGSLRLSCAASGRTVSSVAMGWFRQAPGKEREFVATISWTGGSTYYADSVKGRFTISRDNAKNTAYLQMNSLKPEDTAVYYCAAGYPADPIALMTLRYEYDYWGQGTLVTVSSSPAPELLGGPSVFLFPPKPKDTLMISRTPEVTCVVVDVSHEDPEVKFNWYVDGVEVHNAKTKPREEQYNSTYRVVSVLTVLHQDWLNGKEYKCKVSNKALPAPIEKTISKAKGQPREPQVYTKPPSREEMTKNQVSLSCLVKGFYPSDIAVEWESNGQPENNYKTTVPVLDSDGSFRLASYLTVDKSRWQQGNVFSCSVMHEALHNHYTQKSLSLSPGK

Kd [1]: 6.22 nM
Kd [2]: 399 nM
B10: 01G04R3 VHH Mono-Fc (Fc fusion)
chain: B9 chain with E1Q

Kd [1]: 6.1 nM
Kd [2]: 373 nM
B11: 01E03R2 VHH Mono-Fc (Fc fusion)
chain: B9 chain with Q120L

Kd [1]: 0.858 nM
Kd [2]: 101 nM
B12: 02B11R3 VHH Mono-Fc (Fc fusion)
chain: EVQLVESGGGLVQAGGSLRLSCAASGRTFSPYGMGWFRQTPGKERAFVAAVDWNDGSTYYSDSVKGRFTISRDNAKNTVYLQMNSLKSEDTAVYYCAADLTGWGLDADVSEYDYWGQGTLVTVSSSPAPELLGGPSVFLFPPKPKDTLMISRTPEVTCVVVDVSHEDPEVKFNWYVDGVEVHNAKTKPREEQYNSTYRVVSVLTVLHQDWLNGKEYKCKVSNKALPAPIEKTISKAKGQPREPQVYTKPPSREEMTKNQVSLSCLVKGFYPSDIAVEWESNGQPENNYKTTVPVLDSDGSFRLASYLTVDKSRWQQGNVFSCSVMHEALHNHYTQKSLSLSPGK

Kd [1]: 8.42 nM
Kd [2]: 252 nM
B15: 01H11R3LS VHH Mono-Fc (Fc fusion)
chain: B13 chain with E1Q, T31G, N77T, M83T, L119Q

Kd [1]: 6.58 nM
Kd [2]: 106 nM
B16: 01G09R2 VHH Mono-Fc (Fc fusion)
chain: B13 chain with V64A

Kd [1]: 0.195 nM
Kd [2]: 448 nM
B18: 01D08R3 VHH Mono-Fc (Fc fusion)
chain: QVQLVESGGGLVQAGDSLRLSCAASGRTSSLYNMGWFRQAPGQEREFVAAIHWGGGRTYYADSVKGRFTISRDNAKNTVYLQMNSLEPGDTANYYCAARRAPELLDDYKQKPEEIGAYHYWGQGTQVTVSSSPAPELLGGPSVFLFPPKPKDTLMISRTPEVTCVVVDVSHEDPEVKFNWYVDGVEVHNAKTKPREEQYNSTYRVVSVLTVLHQDWLNGKEYKCKVSNKALPAPIEKTISKAKGQPREPQVYTKPPSREEMTKNQVSLSCLVKGFYPSDIAVEWESNGQPENNYKTTVPVLDSDGSFRLASYLTVDKSRWQQGNVFSCSVMHEALHNHYTQKSLSLSPGK

Kd [1]: 1.39 nM
Kd [2]: 23.2 nM
B19: 01E10R3 VHH Mono-Fc (Fc fusion)
chain: QVQLVESGGGLVQSGGSLRLSCAASGRTFSDYAMGWFRQAPGKERELVAAITWNGGSTYYADSVKGRFTISRDNAKNTVDLQMNSLKPEDTAVYYCAADPLNSDSAGTYDYWGQGTLVTVSSSPAPELLGGPSVFLFPPKPKDTLMISRTPEVTCVVVDVSHEDPEVKFNWYVDGVEVHNAKTKPREEQYNSTYRVVSVLTVLHQDWLNGKEYKCKVSNKALPAPIEKTISKAKGQPREPQVYTKPPSREEMTKNQVSLSCLVKGFYPSDIAVEWESNGQPENNYKTTVPVLDSDGSFRLASYLTVDKSRWQQGNVFSCSVMHEALHNHYTQKSLSLSPGK

Kd [1]: 2.26 nM
Kd [2]: 5.51 nM
B20: 03D01R3 VHH Mono-Fc (Fc fusion)
chain: EVQLVESGGGLVQPGGSLRLSCAASGFTFRTYYMGWFRQAPGKEREFVGVTRSSDDVTYYADSVKGRFTISRDNAKNTVYLQMSRLKPEDTAVYYCAAKPVPITRYSFPQIGEEYDYWGQGTLVTVSSSPAPELLGGPSVFLFPPKPKDTLMISRTPEVTCVVVDVSHEDPEVKFNWYVDGVEVHNAKTKPREEQYNSTYRVVSVLTVLHQDWLNGKEYKCKVSNKALPAPIEKTISKAKGQPREPQVYTKPPSREEMTKNQVSLSCLVKGFYPSDIAVEWESNGQPENNYKTTVPVLDSDGSFRLASYLTVDKSRWQQGNVFSCSVMHEALHNHYTQKSLSLSPGK

Kd [1]: 1.48 nM
Kd [2]: 3.99 nM
B21: 02G03R3 VHH Mono-Fc (Fc fusion)
chain: EVQLVESGGGLVQAGGSLRLSCAASGMPDNIFSIKTMGWYRQAPGKERELVAAITSGGSTNYGDSVKDRFTISRDRIENTVNLEMNNLKPEDTAVYTCHADLTYIRFQDMEYWGKGTQVTVSSSPAPELLGGPSVFLFPPKPKDTLMISRTPEVTCVVVDVSHEDPEVKFNWYVDGVEVHNAKTKPREEQYNSTYRVVSVLTVLHQDWLNGKEYKCKVSNKALPAPIEKTISKAKGQPREPQVYTKPPSREEMTKNQVSLSCLVKGFYPSDIAVEWESNGQPENNYKTTVPVLDSDGSFRLASYLTVDKSRWQQGNVFSCSVMHEALHNHYTQKSLSLSPGK
